B1: human THAP1 (THanatos-Associated-Protein-1), full length (other)
chain: MVQSCSAYGCKNRYDKDKPVSFHKFPLTRPSLCKEWEAAVRRKNFKPTKYSSICSEHFTPDCFKRECNNKLLKENAVPTIFLCTEPHDKKEDLLEPQEQLPPPPLPPPVSQVDAAIGLLMPPLQTPVNLSVFCDHNYTVEDTMHQRKRIHQLEQQVEKLRKKLKTAQQRCRRQERQLEKLKEVVHFQKEKDDVSERGYVILPNDYFEIVEVPA
notes: these tags are not written into the chain; also called hTHAP1; THAP1 wild type
B3: GST-Par4DD fusion protein (Par4 amino acids 250-342) (other)
chain: GFPRYNRDANVSGTLVSSSTLEKKIEDLEKEVVTERQENLRLVRLMQDKEEMIGKLKEEIDLLNRDLDDIEDENEQLKQENKTLLKVVGQLTR
notes: Expressed in E. coli, immobilized on glutathione sepharose; not shown: glutathione S-transferase encoded by vector pGEX-2T (Amersham Pharmacia Biotech)

Data set [1] concerns the molecule itself. The experiment in a line: yeast two-hybrid, THAP1 bait.
Data set [2] has as its target T1, Par4 deletion mutant lacking the leucine zipper/death domain (Par4Δ, amino acids 1-276) (human, UniProt Q96IZ0 1-274).
T1 construct: Gal4 fusion in two-hybrid; also called Par4A; PAR4A
T1 sequence: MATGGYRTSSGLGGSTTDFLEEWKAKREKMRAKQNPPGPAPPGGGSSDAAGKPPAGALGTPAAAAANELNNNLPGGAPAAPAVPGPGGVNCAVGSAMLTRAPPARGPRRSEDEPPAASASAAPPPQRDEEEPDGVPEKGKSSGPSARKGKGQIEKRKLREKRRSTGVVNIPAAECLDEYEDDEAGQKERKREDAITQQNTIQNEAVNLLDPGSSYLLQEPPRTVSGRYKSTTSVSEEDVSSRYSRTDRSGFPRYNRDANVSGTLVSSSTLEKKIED
Put plainly: yeast two-hybrid.

The target in data set [3] is T2, GST (glutathione S-transferase) control protein (UniProt P08515 1-218 = GST).
T2 construct: Negative control in GST pull-down assays; also called GST beads; GST alone
The experiment in a line: GST pull-down, negative control: in vitro translated 35S-labelled protein on GST alone immobilised on glutathione sepharose, SDS-PAGE, fluorography. The method, then:
To confirm the interaction observed in yeast, we performed in vitro GST pull down assays. Par4DD, expressed as a GST-tagged fusion protein and immobilized on glutathione sepharose, was incubated with radiolabeled in vitro translated THAP1. To generate the GST-Par4DD expression vector, Par4DD (amino acids 250-342) was amplified by PCR with primers Par4.10 (5′-[…]-3′) (SEQ ID NO: 194) and Par4.5, and cloned in frame downstream of the Glutathion S-Transferase ORF, into the BamHI site of the pGEX-2T prokaryotic expression vector (Amersham Pharmacia Biotech, Saclay, France). GST-Par4DD (amino acids 250-342) fusion protein encoded by plasmid pGEX-2T-Par4DD and control GST protein encoded by plasmid pGEX-2T, were then expressed in E. coli DH5α and purified by affinity chromatography with glutathione sepharose according to supplier's instructions (Amersham Pharmacia Biotech). The yield of proteins used in GST pull-down assays was determined by SDS-Polyarylamide Gel Electrophoresis (PAGE) and Coomassie blue staining analysis. In vitro-translated THAP1 was generated with the TNT-coupled reticulocyte lysate system (Promega, Madison, Wis., USA) using pGBKT7-THAP1 vector as template. […]

Data set [4] concerns the target B1. The experiment in a line: yeast two-hybrid, THAP1 bait.
For data set [5], the target named is T3, Par4 leucine zipper/death domain (Par4DD, amino acids 250-342) (human, UniProt Q96IZ0 248-340).
T3 construct: Gal4 fusion in two-hybrid; also called myc-Par4DD
T3 chain: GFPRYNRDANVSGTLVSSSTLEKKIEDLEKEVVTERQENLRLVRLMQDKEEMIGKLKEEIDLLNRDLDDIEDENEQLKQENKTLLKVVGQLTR
Put plainly: yeast two-hybrid and in vivo interaction assay.

Data set [6] deals with T4, human prostate apoptosis response-4 (PAR4), full length (human, UniProt Q96IZ0 1-340, limits assumed).
T4 construct: Gal4-BD or Gal4-AD fusion in two-hybrid; also called Par4 wild type
T4 chain: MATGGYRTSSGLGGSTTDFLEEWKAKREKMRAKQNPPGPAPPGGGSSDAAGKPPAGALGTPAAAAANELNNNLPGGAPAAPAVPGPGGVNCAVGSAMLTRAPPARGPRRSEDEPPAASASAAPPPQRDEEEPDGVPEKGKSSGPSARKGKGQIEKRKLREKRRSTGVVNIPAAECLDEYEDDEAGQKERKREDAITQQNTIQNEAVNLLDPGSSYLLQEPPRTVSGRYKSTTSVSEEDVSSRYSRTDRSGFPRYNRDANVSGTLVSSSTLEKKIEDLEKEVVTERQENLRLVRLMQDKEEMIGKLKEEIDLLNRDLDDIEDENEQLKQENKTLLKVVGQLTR
The experiment in a line: yeast two-hybrid, Par4 wt bait. The method, then: for mutant THAP1ΔQRCRR. The resulting PCR fragments were digested with EcoRI and BamHI, and cloned in frame downstream of the Gal4 Binding Domain (Gal4-BD) in pGBKT7 two-hybrid vector (Clontech) to generate pGBKT7-THAP1-RR/AA and -Δ(QRCRR), or downstream of the Enhanced Green Fluorescent Protein (EGFP)ORF in pEGFP.C2 vector (Clontech) to generate pEGFP.C2-THAP1-RR/AA and -Δ(QRCRR). THAP1RR/AA and THAP1ΔQRCRR THAP1 mutants were then tested in the three THAP1/Par4 interaction assays (two-hybrid assay, in vitro THAP1/Par4 interaction assay, in vivo THAP1/Par4 interaction assay) as described above for the THAP1-C1, -C2, -C3, -N1, -N2 or -N3 mutants.

The target in data set [7] is T5, human chemokine SLC/CCL21, mature form (amino acids 24-134) (human, UniProt O00585 24-134).
T5 construct: GenBank NP-002980; Used as Gal4 fusion in two-hybrid and as 35S-labelled in vitro translation product in pull-downs; also called SLC/6Ckine; SLC/CCL21 wild type
T5 sequence: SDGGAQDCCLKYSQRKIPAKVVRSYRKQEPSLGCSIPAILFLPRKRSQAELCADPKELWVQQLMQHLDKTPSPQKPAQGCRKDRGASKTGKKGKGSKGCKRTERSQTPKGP
Put plainly: yeast two-hybrid, SLC/CCL21 bait.

For data set [8], the target named is B3. The experiment in a line: GST pull-down.
Data set [9] has as its target T6, THAP1-N2 deletion mutant (amino acids 1-166) (human, UniProt Q9NVV9 1-166).
T6 construct: Gal4 fusion, in vitro translation product or GFP fusion according to assay
T6 sequence: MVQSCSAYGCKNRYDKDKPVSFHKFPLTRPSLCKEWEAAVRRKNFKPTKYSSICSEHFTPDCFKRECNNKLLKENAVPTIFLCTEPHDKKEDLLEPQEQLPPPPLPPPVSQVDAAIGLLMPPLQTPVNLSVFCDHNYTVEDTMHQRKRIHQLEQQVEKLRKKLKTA
Put plainly: GST pull-down: in vitro translated 35S-labelled protein on GST-Par4DD immobilised on glutathione sepharose, SDS-PAGE, fluorography. The method, then: (§1) THAP1 mutants were also tested in the in vitro THAP1/Par4 interaction assay. In vitro-translated THAP1 mutants were generated with the TNT-coupled reticulocyte lysate system (Promega, Madison, Wis., USA) using pGBKT7-THAP1-C1, -C2, -C3, -N1, -N2 or -N3 vector as template. 25 μl of each ³⁵S-labelled THAP1 mutant was incubated with immobilized GST or GST-Par4 protein overnight at 4° C., in the following binding buffer: 10 mM NaPO4 pH 8.0, 140 mM NaCl, 3 mM MgCl2, 1 mM dithiothreitol (DTT), 0.05% NP40, and 0.2 mM phenylmethyl sulphonyl fluoride (PMSF), 1 mM Na Vanadate, 50 mM β Glycerophosphate, 25 μg/ml chimotrypsine, 5 μg/ml aprotinin, 10 μg/ml Leupeptin. Beads were then washed 5 times in 1 ml binding buffer. Bound proteins were eluted with 2× Laemmli SDS-PAGE sample buffer, fractionated by 10% SDS-PAGE and visualized by fluorography using Amplify (Amersham Pharmacia Biotech). As expected, THAP1-C1, -C2, -C3, -and -N3 interacted with GST/Par4DD (FIG. 4B).

The target of data set [10] is T7, THAP1-N1 deletion mutant (amino acids 1-90) (human, UniProt Q9NVV9 1-90).
T7 construct: Gal4 fusion, in vitro translation product or GFP fusion according to assay; also called zinc finger domain of THAP1
T7 sequence: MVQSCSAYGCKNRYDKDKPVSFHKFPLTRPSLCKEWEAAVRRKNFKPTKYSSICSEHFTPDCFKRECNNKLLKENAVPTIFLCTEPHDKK
The data set is described as above. The method, then: as §1

The target in data set [11] is T8, THAP1ΔQRCRR mutant (deletion of residues 168-172) (human, UniProt Q9NVV9 1-213).
T8 sequence: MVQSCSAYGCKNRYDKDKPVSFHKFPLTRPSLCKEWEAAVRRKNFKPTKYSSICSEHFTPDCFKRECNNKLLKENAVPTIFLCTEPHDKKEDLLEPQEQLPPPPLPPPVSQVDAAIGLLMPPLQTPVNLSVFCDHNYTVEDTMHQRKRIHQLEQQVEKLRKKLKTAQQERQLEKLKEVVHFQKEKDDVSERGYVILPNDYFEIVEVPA
The experiment in a line: GST pull-down.

The record followed here is patent US20060270596A1 (CENTRE NATIONAL DE LA RECHERCHE SCIENTIFIQUE CNRS, published 2006).

T2 sequence (P08515 whole entry): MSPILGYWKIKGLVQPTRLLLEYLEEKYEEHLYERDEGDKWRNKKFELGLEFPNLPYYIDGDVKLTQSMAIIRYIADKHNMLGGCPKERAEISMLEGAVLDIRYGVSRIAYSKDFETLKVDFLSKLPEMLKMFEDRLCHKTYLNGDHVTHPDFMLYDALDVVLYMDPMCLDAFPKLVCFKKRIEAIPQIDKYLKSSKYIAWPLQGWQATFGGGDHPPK

As to B1, the binding result in data set [1] is “binds”; in data set [2] it was “no binding”; in data set [3], “no binding”.

B2: THAP1 RR/AA mutant (R171A, R172A) (other)
chain: MVQSCSAYGCKNRYDKDKPVSFHKFPLTRPSLCKEWEAAVRRKNFKPTKYSSICSEHFTPDCFKRECNNKLLKENAVPTIFLCTEPHDKKEDLLEPQEQLPPPPLPPPVSQVDAAIGLLMPPLQTPVNLSVFCDHNYTVEDTMHQRKRIHQLEQQVEKLRKKLKTAQQRCAAQERQLEKLKEVVHFQKEKDDVSERGYVILPNDYFEIVEVPA
notes: Gal4-BD fusion, in vitro translation product or GFP fusion according to assay; also called THAP RR/AA
For the molecule B2, the binding result is “binds” in [4]; “no binding” in [5]; “no binding” in data set [6]; “binds” in [7]; “no binding” in data set [8].

Turning to B3, the binding result in [9], in data set [10] and in [11] was “no binding” each time.
